To fix the notation:
B1: S. japonicus Tup11 WD40 domain (amino acids 301–630), wild type [S. japonicus] / C-terminal region of S. pombe Fep1 (amino acids 319–564) [S. pombe] (parent complex)
chain 1: ERTKESGQDWYAVYNEKMPKRMSIGLVHTLEHKSVVCCVRFSADGKYLATGCNRAAEIFDVQTGQKLATFEQENTNPETDLYIRSVAFSPDGKYLVTGAEDRQIRMWDIATGKVKHVFVGHEQDIYSLDYSRDGRYIVSGSGDHTARLWEAETGKCVLTLAIENGVTAVAFSPNNQFIAAGSLDQVIRVWSITGTLLKKLEGHRESVYSIAFSADGKYLASGSLDKTMRLWELKLDENAKTCSKASAISTYTGHSNFVLSVAISPNGKWAVSGSKDRSVQFWNLKTDELYLTFQGHKNSVISVCFSPDGKLFATGSGDLRARIWSIEDTA
chain 2: AAGEPDNNGKVYYSYGPTQEQSILPLPENKHEGLPPYQNEYVPNGIRANQVVYPGQLVAVGNDSSKQLSESTTSNTDNNGVATANQSNPLGMKFHLPPILPVGESVCLPPRTSAKPRIAEGIASLLNPEEPPSNSDKQPSMSNGPKSEVSPSQSQQAPLIQSSTSPVSLQFPPEVQGSNVDKRNYALNVLSQLRSQHDLMIQELHNLNQHIQQIDEWLRSSDNENMASEHIKSSTPAVVASGALQT

The variants in this assay derive from B1. In words: ITC; parent: -6.6; read off a plot. Background: In ITC the heat of successive injections is recorded.
Consider chain 1 ERTKESGQDWYAVYNEKMPKRMSIGLVHTLEHKSVVCCVRFSADGKYLATGCNRAAEIFDVQTGQKLATFEQENTNPETDLYIRSVAFSPDGKYLVTGAEDRQIRMWDIATGKVKHVFVGHEQDIYSLDYSRDGRYIVSGSGDHTARLWEAETGKCVLTLAIENGVTAVAFSPNNQFIAAGSLDQVIRVWSITGTLLKKLEGHRESVYSIAFSADGKYLASGSLDKTMRLWELKLDENAKTCSKASAISTYTGHSNFVLSVAISPNGKWAVSGSKDRSVQFWNLKTDELYLTFQGHKNSVASVCFSPDGKLFATGSGDLRARIWSIEDTA [chain 1 I301A], for which the dG was about -5.4 kcal/mol.

Consider chain 1 ERTKESGQDWYAVYNEKMPKRMSIGLVHTLEHKSVVACVRFSADGKYLATGCNRAAEIFDVQTGQKLATFEQENTNPETDLYIRSVAFSPDGKYLVTGAEDRQIRMWDIATGKVKHVFVGHEQDIYSLDYSRDGRYIVSGSGDHTARLWEAETGKCVLTLAIENGVTAVAFSPNNQFIAAGSLDQVIRVWSITGTLLKKLEGHRESVYSIAFSADGKYLASGSLDKTMRLWELKLDENAKTCSKASAISTYTGHSNFVLSVAISPNGKWAVSGSKDRSVQFWNLKTDELYLTFQGHKNSVISVCFSPDGKLFATGSGDLRARIWSIEDTA [chain 1 C37A], for which the dG was about -6.2 kcal/mol.

As to chain 1 ERTKESGQDWYAVYNEKMPKRMSIGLVHTLEHKSVVCCVRFSADGKYLATGCNRAAEIFDVQTGQKLATFEQENTNPETDLYIRSVAFSPDGKYLVTGAADRQIRMWDIATGKVKHVFVGHEQDIYSLDYSRDGRYIVSGSGDHTARLWEAETGKCVLTLAIENGVTAVAFSPNNQFIAAGSLDQVIRVWSITGTLLKKLEGHRESVYSIAFSADGKYLASGSLDKTMRLWELKLDENAKTCSKASAISTYTGHSNFVLSVAISPNGKWAVSGSKDRSVQFWNLKTDELYLTFQGHKNSVISVCFSPDGKLFATGSGDLRARIWSIEDTA [chain 1 E100A], the dG was about -6.2 kcal/mol.

On to chain 1 ERTKESGQDWYAVYNEKMPKRMSIGLVHTLEHKSVVCCVRFSADGKYLATGCNRAAEIFDVQTGQKLATFEQENTNPETDLYIRSVAFSPDGKYLVTGAEDRQIRMWDIATGKVKHVFVGHEQAIYSLDYSRDGRYIVSGSGDHTARLWEAETGKCVLTLAIENGVTAVAFSPNNQFIAAGSLDQVIRVWSITGTLLKKLEGHRESVYSIAFSADGKYLASGSLDKTMRLWELKLDENAKTCSKASAISTYTGHSNFVLSVAISPNGKWAVSGSKDRSVQFWNLKTDELYLTFQGHKNSVISVCFSPDGKLFATGSGDLRARIWSIEDTA [chain 1 D124A], for which the dG was about -6.9 kcal/mol.

As for chain 1 ERTKESGQDWYAVYNEKMPKRMSIGLVHTLEHKSVVCCVRFSADGKYLATGCNRAAEIFDVQTGQKLATFEQENTNPETDLYIRSVAFSPDGKYLVTGAEDRQIRMWDIATGKVKHVFVGHEQDIYSLDYSRDGRYIVSGSGDHTARLWEAETGKCVLTLAIENGVTAVAFSPNNQFIAAGSSDQVIRVWSITGTLLKKLEGHRESVYSIAFSADGKYLASGSLDKTMRLWELKLDENAKTCSKASAISTYTGHSNFVLSVAISPNGKWAVSGSKDRSVQFWNLKTDELYLTFQGHKNSVISVCFSPDGKLFATGSGDLRARIWSIEDTA [chain 1 L183S], the dG was about -6.8 kcal/mol.

For the variant chain 1 ERTKESGQDWYAVYNEKMPKRMSIGLVHTLEHKSVVCCVRFSADGKYLATGCNRAAEIFDVQTGQKLATFEQENTNPETDLYIRSVAFSPDGKYLVTGAEDRQIRMWDIATGKVKHVFVGHEQDIYSLDYSRDGRYIVSGSGDHTARLWEAETGKCVLTLAIENGVTAVAFSPNNQFIAAGSLDQVIRVWSITGTLLKKLEGHRESVYSIAFSADGKYLASGSADKTMRLWELKLDENAKTCSKASAISTYTGHSNFVLSVAISPNGKWAVSGSKDRSVQFWNLKTDELYLTFQGHKNSVISVCFSPDGKLFATGSGDLRARIWSIEDTA [chain 1 L224A], the dG is about -6 kcal/mol.

chain 1 ERTKESGQDWYAVYNEKMPKRMSIGLVHTLEHKSVVCCVRFSADGKYLATGCNRAAEIFDVQTGQKLATFEQENTNPETDLYIRSVAFSPDGKYLVTGAEDRQIRMWDIATGKVKHVFVGHEQDIYSLDYSRDGRYIVSGSGDHTARLWEAETGKCVLTLAIENGVAAVAFSPNNQFIAAGSLDQVIRVWSITGTLLKKLEGHRESVYSIAFSADGKYLASGSLDKTMRLWELKLDENAKTCSKASAISTYTGHSNFVLSVAISPNGKWAVSGSKDRSVQFWNLKTDELYLTFQGHKNSVISVCFSPDGKLFATGSGDLRARIWSIEDTA [chain 1 T167A]: the dG is about -6.4 kcal/mol.

As to chain 1 ERTKESGQDWYAVYNEKMPKRMSIGLVHTLEHKSVVCCVRFSADGKYLATGCNRAAEIFDVQTGQKLATFEQENTNPETDLYIRSVAFSPDGKYLVTGAEDRQIRMWDIATGKVKHVFVGHEQDIYSLDYSRDGRYIVSGSGDHTARLWEAETGKCVLTLAIENGVTAVAFSPNNQFIAAGSLDQVIRVWSITGTLLKKLEGHRESVYSIAFSADGKYLASGSLDKTMRLWELKLDENAKTCSKASAISTYTGHSNAVLSVAISPNGKWAVSGSKDRSVQFWNLKTDELYLTFQGHKNSVISVCFSPDGKLFATGSGDLRARIWSIEDTA [chain 1 F257A], the dG is about -5.9 kcal/mol.

With chain 1 ERTKESGQDWYAVYNEKMPKRMSIGLVHTLEHKSVVCCVRFSADGKYLATGCNRAAEIFDVQTGQKLATFEQENTNPETDLYIASVAFSPDGKYLVTGAEDRQIRMWDIATGKVKHVFVGHEQDIYSLDYSRDGRYIVSGSGDHTARLWEAETGKCVLTLAIENGVTAVAFSPNNQFIAAGSLDQVIRVWSITGTLLKKLEGHRESVYSIAFSADGKYLASGSLDKTMRLWELKLDENAKTCSKASAISTYTGHSNFVLSVAISPNGKWAVSGSKDRSVQFWNLKTDELYLTFQGHKNSVISVCFSPDGKLFATGSGDLRARIWSIEDTA [chain 1 R84A], the dG was about -5.4 kcal/mol.

Regarding chain 1 ERTKESGQDWYAVYNEKMPKRMSIGLVHTLEHKSVVCCVRFSADGKYLATGCNRAAEIFDVQTGQKLATFEQENTNPETDLYIRSVAFSPDGKYLVTGAEDRQIRMWDIATGKVKHVFVGHEQDIASLDYSRDGRYIVSGSGDHTARLWEAETGKCVLTLAIENGVTAVAFSPNNQFIAAGSLDQVIRVWSITGTLLKKLEGHRESVYSIAFSADGKYLASGSLDKTMRLWELKLDENAKTCSKASAISTYTGHSNFVLSVAISPNGKWAVSGSKDRSVQFWNLKTDELYLTFQGHKNSVISVCFSPDGKLFATGSGDLRARIWSIEDTA [chain 1 Y126A], the dG is about -5.6 kcal/mol.

For the variant chain 1 ERTKESGQDWYAVYNEKMPKRMSIGLVHTLEHKSVVCCVRFSADGKYLATGCNRAAEIFDVQTGQKLATFEQENTNPETDLYIRSVAFSPDGKYLVTGAEDRQIRMWDIATGKVKHVFVGHEQDIYSLDYSRDGRYIVSGSGDHTARLWEAETGKCVLTLAIENGVTAVAFSPNNQFIAAGSLDQVIRVWSITGTLLKKLEGHRESVASIAFSADGKYLASGSLDKTMRLWELKLDENAKTCSKASAISTYTGHSNFVLSVAISPNGKWAVSGSKDRSVQFWNLKTDELYLTFQGHKNSVISVCFSPDGKLFATGSGDLRARIWSIEDTA [chain 1 Y208A], the dG is about -5.6 kcal/mol.

Values taken from PMC3419727, “Identifying the Hotspots on the Top Faces of WD40-Repeat Proteins from Their Primary Sequences by β-Bulges and DHSW Tetrads” (PLoS ONE, 2012).
